Data on 1 substance can be found in paper PMC6553764.

The test addresses FSFG6 (a segment of Nsp1FG that contains six repeats of the FxFG-type region) (S. cerevisiae). Nature of the test: SPR; XPR36 (BioRad), GLC chip; FG construct conjugated by its C-terminal cysteine to maleimide surface, quenched with beta-mercaptoethanol; analyte in TBT-PVP at 100 μl/min, association 15-120 s, dissociation 10 min, 25°C.

“Kap95 (without the GST domain) (from UniProt Q06142 1-861) (natural protein)”: the fastest association rate estimated from the kinetic model fits is 3e+06 M⁻¹ s⁻¹.
